# B1: ZHX2 HD2 (homeodomain 2 of human zinc-fingers and homeoboxes 2), proteolytic fragment derived from OPPF_2273 (ZHX2 HD2-3) (domain or fragment)
# chain: RKKTKEQIAHLKASFLQSQFPDDAEVYRLIEVTGLARSEIKKWFSDHRYRCQRGIVHI
# notes: ZHX2 (zinc-fingers and homeoboxes 2), human; homeodomain 2; Expressed as construct OPPF_2273 (HD2-3, aa 444-582); HD2-HD3 was cleaved by proteolysis after purification and only HD2 crystallized; Cys494 lies in the fragment; Homodimer in the crystal, with helix I domain-swapped and a disulfide bridge between the Cys494 of the two subunits; the deposited entry would show the ordered residues; also …
# Target: the molecule itself
# Experiment: crystal structure; crystals grown from purified His-tagged ZHX2 HD2-3 (OPPF_2273), 20% PEG6000, 0.2 M LiCl, HEPES pH7; protein cleaved in the droplet, two molecules of HD2 in the asymmetric unit; 2.70 Å, data at 100 K
protein,measurement,value
B1,stoichiometry N,2

# Reference: paper PMC2893186 (BMC Structural Biology, 2010)
